{"source": "patent US20180335433A1", "about": "“COMPOSITIONS TARGETING PKC-THETA AND USES AND METHODS OF TREATING PKC-THETA PATHOLOGIES, ADVERSE IMMUNE RESPONSES AND DISEASES” (La Jolla Institute for Allergy and Immunology, priority 2011, published 2018)", "molecules": {"B1": {"name": "V3 domain: amino acid 282-379 of human PKCθ with N-terminal Myc tag, expressed from pMIG retroviral vector (protein)", "chain": "GINQKLMAEALAMIESTQQARCLRDTEQIFREGPVEIGLPCSIKNEARPPCLPTPGKREPQGISWESPLDEVDKMCHLPEPELNKERPSLQIKLKIED", "modifications": "left off: small tags and cut ends", "notes": "amino acid 282-379 of human PKCθ with N-terminal Myc tag, expressed from pMIG retroviral vector"}}, "key": {"endogenous PKCθ": {"system": "endogenous PKCθ", "assay": "IS localization in OT-II CD4+ T cells conjugated with Ova-loaded APCs (confocal)", "assay_type": "cell-based, mouse", "conditions": "OT-II TCR-Tg CD4+ T cells", "method": "(FIG. 6A) OT-II CD4^+ T cells were infected with retrovirus expressing Myc-tagged V3 domain, V3 mutated at P330/1/4/6A (V3-4PA), or PR motif-deleted V3 (V3-ΔPR). Infected cells (green) were harvested, stimulated, and fixed. Conjugates were stained with anti-Myc plus a secondary Alexa 555-coupled antibody (orange), and anti-PKCθ plus a secondary Alexa 647-coupled antibody (red). Cells were analyzed as in FIG. 1A. (FIG. 6B) Quantitative analysis of the results shown in (FIG. 6A) from 30-50 T-APC conjugates. ** p<0.05. (FIG. 6C) MCC-specific T hybridoma cells were cotransfected with indicated vector, together with RE/AP-Luc and β-Gal reporter plasmids. Cells were stimulated and analyzed as in FIG. 1C. (FIG. 6D) Naïve CD4^+ T cells from B6 mice stimulated with anti-CD3 plus anti-CD28 mAbs and differentiated in vitro under Th1-, Th2- or Th17-polarizing conditions were retrovirally transduced with empty pMIG vector, or with the indicated PKCθ V3 vectors. Cytokine-producing cells were analyzed by intracellular staining 8 h after restimulation. Right panels represent cumulative data showing percentage of cytokine-producing cells by intracellular staining. (FIG. 6E) MCC-specific T hybridoma cells were cotransfected with the indicated plasmids, together with NFAT luciferase reporter and a β-Gal reporter plasmid. Cells were incubated with fibroblasts that express I-E^K and B7-1 in the absence or presence of MCC peptide for 6 hrs. Normalized luciferase activity was determined in triplicates.\nFull-length human PKCθ and its derivatives were cloned as a GFP fusion protein in the pMX retroviral vector. Retroviral supernatants were used to infect preactivated CD4^+ T cells from PKCθ^−/− or WT OT-II mice. Transduced cells were rested for an additional three days. On the day of experiment, APC were prepared from WT B6 splenocytes that were depleted of CD4^+ T cells using anti-CD4 (L3T4) mAb-coated beads. T-depleted APC were stained with 20 μM of cell tracker blue (CMAC) and then pulsed with 5 μM Ova peptide, respectively, for 30 min at 37° C. T cell-APC conjugation was carried out at 37° C. for 20 min before fixation with 4% paraformaldehyde and permeabilization with PBS supplemented with 1% BSA and 0.1% Triton X-100. […] Immunofluorescene images were captured using a Marianas digital fluorescence-microscopy system (Intelligent Imaging Innovations) as described (Becart, S. et al. Immunity 29, 704-719 (2008)).\nGiven the critical role of the PKCθ V3 domain in the enzyme's CD28 association, IS localization, and activation of downstream targets, ectopic expression of the isolated V3 domain was analyzed for interference with the localization and function of PKCθ in stimulated T cells. […]"}, "NFAT reporter gene": {"system": "NFAT reporter gene", "assay": "NFAT luciferase reporter assay in MCC-specific T hybridoma cells", "assay_type": "cell-based", "method": "(FIG. 6A) OT-II CD4^+ T cells were infected with retrovirus expressing Myc-tagged V3 domain, V3 mutated at P330/1/4/6A (V3-4PA), or PR motif-deleted V3 (V3-ΔPR). Infected cells (green) were harvested, stimulated, and fixed. Conjugates were stained with anti-Myc plus a secondary Alexa 555-coupled antibody (orange), and anti-PKCθ plus a secondary Alexa 647-coupled antibody (red). Cells were analyzed as in FIG. 1A. (FIG. 6B) Quantitative analysis of the results shown in (FIG. 6A) from 30-50 T-APC conjugates. ** p<0.05. (FIG. 6C) MCC-specific T hybridoma cells were cotransfected with indicated vector, together with RE/AP-Luc and β-Gal reporter plasmids. Cells were stimulated and analyzed as in FIG. 1C. […] Cytokine-producing cells were analyzed by intracellular staining 8 h after restimulation. […] Normalized luciferase activity was determined in triplicates.\nThe CD28 response element (RE/AP)- or NFAT-luciferase (Luc) reporter genes have been described (Coudronniere, N. et al. Proc Natl Acad Sci USA 97, 3394-3399 (2000)). […] The cells were the lysed and Luc activity was quantitated and normalized to the activity of a cotransfected β-galactosidase (β-Gal) reporter gene.\nTo determine whether ectopic V3 expression also interfered with PKCθ-dependent TCR/CD28 signaling, the effects of V3 on activation of reporter genes and on T cell differentiation into effector Th cells were analyzed. […]"}, "[1]": {"system": "Naïve CD4+ T cells from B6 mice, Treg (FoxP3+) cells", "assay": "In vitro Treg (FoxP3+) differentiation of retrovirally transduced CD4+ T cells", "assay_type": "cell-based, mouse", "conditions": "Treg-polarizing conditions (IL-2+TGFβ), GFP+FoxP3+ cells", "method": "(§1) Naïve CD4+ T cells from B6 mice stimulated with anti-CD3 plus anti-CD28 mAbs and differentiated in vitro under Treg-polarizing conditions (IL-2+TGFβ) were retrovirally transduced with empty pMIG vector, or with the indicated PKCθ V3 vectors. Transduced (GFP+) cells were sorted and FoxP3+ cells were analyzed by intracellular staining.\nas §1, with “CD4^+” for “CD4+”, “(GFP+)” for “(GFP+) cells were sorted and”, “intracellular staining 8 hours after restimulation. Right panels represent cumulative data showing percentage of GFP+FoxP3+ cells by intracellular” for “intracellular”"}}, "data": [{"molecule": "B1", "values": [{"measurement": "effect on IS localization of endogenous PKCθ", "setting": "endogenous PKCθ", "value": "sequestered from the IS"}, {"measurement": "subcellular localization of the transduced V3 protein", "setting": "endogenous PKCθ", "value": "translocated to and selectively localized in the IS"}, {"measurement": "inhibition of NFAT reporter gene activity stimulated by WT PKCθ", "setting": "NFAT reporter gene; coexpressed at increasing levels together with WT PKCθ", "value": "inhibited in a dose-dependent manner"}, {"measurement": "activation of NFAT reporter gene", "setting": "NFAT reporter gene; expression of the V3 alone", "value": "did not activate"}, {"measurement": "promotion of Treg differentiation", "setting": "[1]", "value": "~4", "unit": "fold"}]}]}
